Measurements as given in the supplement of paper PMC6757056.
± gives the standard deviation of the averaged measurements.

B1: library; a variant is named by its letters at N, in order (parent)
chain: GCUGUCACCGAGAAACUGUGAAGUAUAUCUUAAACCUGGGCACUUAAAAGAUAUAUGGAGUUAGUAGUGCAACCUGCUCGGUCUGAUGAGUCCNNNNNNGGACGAAACAGC

Experiments:
cyclic di-GMP [1] = variants of: B1; experiment: normalized RNA/DNA level without ligand (relative to sTRSVctl = 100) (log10 (% of sTRSVctl)); HEK293T; ligand: cyclic di-GMP (c-di-GMP-II aptamer); higher = less ribozyme self-cleavage, higher mRNA level; conditions: reporter: mCherry (pCS4076), ligand present: no
Outline: (§1)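 Ribozyme switch library plasmids with mCherry reporters (eGFP in certain ligand experiments) went into HEK293T cells at 4 µg per 6-well well. Where ligand was used, it was applied 1 h before transfection, and total RNA was extracted with EDTA 72 h later for reverse transcription, amplification, barcoding and sequencing. RNA level is the RNA-to-DNA read ratio normalized to a spiked-in non-cleaving sequence or to the leading sequences, then scaled and log-transformed. Scaling was ×100 with log10, the leading set comprised 25 sequences, and the cutoff was ≥100 DNA reads.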

cyclic di-GMP [2] = variants of: B1; experiment: normalized RNA/DNA level with ligand (relative to sTRSVctl = 100) (log10 (% of sTRSVctl)); HEK293T; ligand: cyclic di-GMP (c-di-GMP-II aptamer); ligand concentration (+) RNA-Seq: 1 mM; higher = less ribozyme self-cleavage, higher mRNA level; conditions: reporter: mCherry (pCS4076), ligand present: yes
Outline: as §1

Variant	normalized RNA/DNA level without ligand (log10) (cyclic di-GMP [1])	normalized RNA/DNA level with ligand (log10) (cyclic di-GMP [2])
GCUGUCACCGAGAAACUGUGAAGUAUAUCUUAAACCUGGGCACUUAAAAGAUAUAUGGAGUUAGUAGUGCAACCUGCUCGGUCUGAUGAGUCCGCAGAUGGACGAAACAGC [GCAGAU]	1.43 ± 0.093	1.6 ± 0.083
GCUGUCACCGAGAAACUGUGAAGUAUAUCUUAAACCUGGGCACUUAAAAGAUAUAUGGAGUUAGUAGUGCAACCUGCUCGGUCUGAUGAGUCCGCAGACGGACGAAACAGC [GCAGAC]	1.42 ± 0.068	1.59 ± 0.079
GCUGUCACCGAGAAACUGUGAAGUAUAUCUUAAACCUGGGCACUUAAAAGAUAUAUGGAGUUAGUAGUGCAACCUGCUCGGUCUGAUGAGUCCCCAGAUGGACGAAACAGC [CCAGAU]	1.65 ± 0.025	1.81 ± 0.12
GCUGUCACCGAGAAACUGUGAAGUAUAUCUUAAACCUGGGCACUUAAAAGAUAUAUGGAGUUAGUAGUGCAACCUGCUCGGUCUGAUGAGUCCCCAGAGGGACGAAACAGC [CCAGAG]	1.42 ± 0.049	1.62 ± 0.17
GCUGUCACCGAGAAACUGUGAAGUAUAUCUUAAACCUGGGCACUUAAAAGAUAUAUGGAGUUAGUAGUGCAACCUGCUCGGUCUGAUGAGUCCACAGGAGGACGAAACAGC [ACAGGA]	1.3 ± 0.067	1.41 ± 0.16
GCUGUCACCGAGAAACUGUGAAGUAUAUCUUAAACCUGGGCACUUAAAAGAUAUAUGGAGUUAGUAGUGCAACCUGCUCGGUCUGAUGAGUCCGCAGCCGGACGAAACAGC [GCAGCC]	1.6725 ± 0.00097	1.83 ± 0.14
GCUGUCACCGAGAAACUGUGAAGUAUAUCUUAAACCUGGGCACUUAAAAGAUAUAUGGAGUUAGUAGUGCAACCUGCUCGGUCUGAUGAGUCCGCAGCGGGACGAAACAGC [GCAGCG]	1.83 ± 0.035	1.92 ± 0.072
GCUGUCACCGAGAAACUGUGAAGUAUAUCUUAAACCUGGGCACUUAAAAGAUAUAUGGAGUUAGUAGUGCAACCUGCUCGGUCUGAUGAGUCCGCAGCAGGACGAAACAGC [GCAGCA]	1.82 ± 0.022	1.89 ± 0.092
GCUGUCACCGAGAAACUGUGAAGUAUAUCUUAAACCUGGGCACUUAAAAGAUAUAUGGAGUUAGUAGUGCAACCUGCUCGGUCUGAUGAGUCCUCAGCCGGACGAAACAGC [UCAGCC]	1.818 ± 0.0024	1.88 ± 0.14
GCUGUCACCGAGAAACUGUGAAGUAUAUCUUAAACCUGGGCACUUAAAAGAUAUAUGGAGUUAGUAGUGCAACCUGCUCGGUCUGAUGAGUCCUCAGCUGGACGAAACAGC [UCAGCU]	1.671 ± 0.0017	1.82 ± 0.15
GCUGUCACCGAGAAACUGUGAAGUAUAUCUUAAACCUGGGCACUUAAAAGAUAUAUGGAGUUAGUAGUGCAACCUGCUCGGUCUGAUGAGUCCUCAGCAGGACGAAACAGC [UCAGCA]	1.672 ± 0.004	1.82 ± 0.097
GCUGUCACCGAGAAACUGUGAAGUAUAUCUUAAACCUGGGCACUUAAAAGAUAUAUGGAGUUAGUAGUGCAACCUGCUCGGUCUGAUGAGUCCCCAGCCGGACGAAACAGC [CCAGCC]	1.762 ± 0.0075	1.86 ± 0.13
GCUGUCACCGAGAAACUGUGAAGUAUAUCUUAAACCUGGGCACUUAAAAGAUAUAUGGAGUUAGUAGUGCAACCUGCUCGGUCUGAUGAGUCCCCAGCGGGACGAAACAGC [CCAGCG]	1.76 ± 0.036	1.91 ± 0.097
GCUGUCACCGAGAAACUGUGAAGUAUAUCUUAAACCUGGGCACUUAAAAGAUAUAUGGAGUUAGUAGUGCAACCUGCUCGGUCUGAUGAGUCCCCAGCUGGACGAAACAGC [CCAGCU]	1.682 ± 0.011	1.86 ± 0.084
GCUGUCACCGAGAAACUGUGAAGUAUAUCUUAAACCUGGGCACUUAAAAGAUAUAUGGAGUUAGUAGUGCAACCUGCUCGGUCUGAUGAGUCCCCAGGAGGACGAAACAGC [CCAGGA]	1.5 ± 0.088	1.71 ± 0.12
GCUGUCACCGAGAAACUGUGAAGUAUAUCUUAAACCUGGGCACUUAAAAGAUAUAUGGAGUUAGUAGUGCAACCUGCUCGGUCUGAUGAGUCCUCACUGGGACGAAACAGC [UCACUG]	1.632 ± 0.0038	1.81 ± 0.16
GCUGUCACCGAGAAACUGUGAAGUAUAUCUUAAACCUGGGCACUUAAAAGAUAUAUGGAGUUAGUAGUGCAACCUGCUCGGUCUGAUGAGUCCACAGCCGGACGAAACAGC [ACAGCC]	1.66 ± 0.027	1.84 ± 0.1
GCUGUCACCGAGAAACUGUGAAGUAUAUCUUAAACCUGGGCACUUAAAAGAUAUAUGGAGUUAGUAGUGCAACCUGCUCGGUCUGAUGAGUCCACAGCUGGACGAAACAGC [ACAGCU]	1.55 ± 0.062	1.73 ± 0.12
GCUGUCACCGAGAAACUGUGAAGUAUAUCUUAAACCUGGGCACUUAAAAGAUAUAUGGAGUUAGUAGUGCAACCUGCUCGGUCUGAUGAGUCCACAGCAGGACGAAACAGC [ACAGCA]	1.66 ± 0.046	1.75 ± 0.095
GCUGUCACCGAGAAACUGUGAAGUAUAUCUUAAACCUGGGCACUUAAAAGAUAUAUGGAGUUAGUAGUGCAACCUGCUCGGUCUGAUGAGUCCGCAGGAGGACGAAACAGC [GCAGGA]	1.4 ± 0.075	1.56 ± 0.091
GCUGUCACCGAGAAACUGUGAAGUAUAUCUUAAACCUGGGCACUUAAAAGAUAUAUGGAGUUAGUAGUGCAACCUGCUCGGUCUGAUGAGUCCACACUUGGACGAAACAGC [ACACUU]	1.47 ± 0.091	1.72 ± 0.092
GCUGUCACCGAGAAACUGUGAAGUAUAUCUUAAACCUGGGCACUUAAAAGAUAUAUGGAGUUAGUAGUGCAACCUGCUCGGUCUGAUGAGUCCACACUGGGACGAAACAGC [ACACUG]	1.48 ± 0.04	1.68 ± 0.077
GCUGUCACCGAGAAACUGUGAAGUAUAUCUUAAACCUGGGCACUUAAAAGAUAUAUGGAGUUAGUAGUGCAACCUGCUCGGUCUGAUGAGUCCUCAGAAGGACGAAACAGC [UCAGAA]	1.35 ± 0.17	1.65 ± 0.14
GCUGUCACCGAGAAACUGUGAAGUAUAUCUUAAACCUGGGCACUUAAAAGAUAUAUGGAGUUAGUAGUGCAACCUGCUCGGUCUGAUGAGUCCUCAGACGGACGAAACAGC [UCAGAC]	1.63 ± 0.017	1.76 ± 0.13
GCUGUCACCGAGAAACUGUGAAGUAUAUCUUAAACCUGGGCACUUAAAAGAUAUAUGGAGUUAGUAGUGCAACCUGCUCGGUCUGAUGAGUCCUCAGAGGGACGAAACAGC [UCAGAG]	1.53 ± 0.045	1.69 ± 0.042
GCUGUCACCGAGAAACUGUGAAGUAUAUCUUAAACCUGGGCACUUAAAAGAUAUAUGGAGUUAGUAGUGCAACCUGCUCGGUCUGAUGAGUCCACAGACGGACGAAACAGC [ACAGAC]	1.49 ± 0.056	1.71 ± 0.049
